This passage reports stoichiometry N results from PMC6563307.

As usually defined, the stoichiometry N is the number of molecules, sites or subunits per partner or assembly.

Assay [1] has as its target Vip3Ab1 (full length, not digested) (Bacillus thuringiensis). The assay is described as follows: SEC; analytical size exclusion chromatography of the full-length protein incubated overnight without midgut fluid, pH 10.0; 6 µL injected at 150 µg/mL; size estimated from molecular weight standards.
Assay [2] deals with Vip3Ab1 processed by midgut fluid (~65 kDa and ~20 kDa products that remain associated) (Bacillus thuringiensis). Briefly: SEC; analytical size exclusion chromatography after overnight digestion at pH 10.0, 30 °C, with S. frugiperda or S. eridania midgut fluid; 6 µL injected at 150 µg/mL; size estimated from molecular weight standards.
For assay [3], the target named is Vip3Ab1-740 (full length, not digested) (Bacillus thuringiensis). The assay is described as follows: SEC; analytical size exclusion chromatography of the full-length protein incubated overnight without midgut fluid, pH 10.0; 6 µL injected at 150 µg/mL; size estimated from molecular weight standards.
In assay [4] the target is Vip3Ab1-740 processed by midgut fluid (~65 kDa and ~20 kDa products that remain associated) (Bacillus thuringiensis). The assay is described as follows: SEC; analytical size exclusion chromatography after overnight digestion at pH 10.0, 30 °C, with S. frugiperda or S. eridania midgut fluid; 6 µL injected at 150 µg/mL; size estimated from molecular weight standards.

For the substance “Vip3Ab1 (full length, not digested) (natural protein)”, the stoichiometry N in assay [1] is 4. On to “Vip3Ab1 processed by midgut fluid (~65 kDa and ~20 kDa products that remain associated) (complex)”, for which the stoichiometry N in assay [2] is 4.

As to Vip3Ab1-740 (full length, not digested), in assay [3], the stoichiometry N is 4.

Regarding “Vip3Ab1-740 processed by midgut fluid (~65 kDa and ~20 kDa products that remain associated) (complex)”, the stoichiometry N in assay [4] is 4.
